Target: the molecule itself
Experiment: SEC-MALS (eluted at 198 kDa against the predicted 98 kDa) and analytical SEC with 0, 1M or 2M GuHCl
Procedure: To confirm proper expression of the PTGFRN ECD, the purified protein was analyzed by size exclusion chromatography/multiangle light scattering (SEC-MALS), using BSA and an anti-VLA4 antibody as standards for comparison. Recombinant PTGFRN ECD was eluted at ˜2x its predicted molecular weight (198 kDa as opposed to the predicted molecular weight, 98 kDa; FIG. 20A). To determine whether PTGFRN ECD forms a homodimer in solution, recombinant PTGFRN ECD was run over an analytical SEC column (Tosoh, 7.8×30cm, G3000SW xl) in PBS in the absence of guanidium chloride (GuHCl) or in the presence of 1M or 2M guanidinium chloride (GuHCl).

B1: recombinant PTGFRN extracellular domain (ECD), purified, Fc tag removed with thrombin (receptor)
chain: VPTATLVRVVGTELVIPCNVSDYDGPSEQNFDWSFSSLGSSFVELASTWEVGFPAQLYQERLQRGEILLRRTANDAVELHIKNVQPSDQGHYKCSTPSTDATVQGNYEDTVQVKVLADSLHVGPSARPPPSLSLREGEPFELRCTAASASPLHTHLALLWEVHRGPARRSVLALTHEGRFHPGLGYEQRYHSGDVRLDTVGSDAYRLSVSRALSADQGSYRCIVSEWIAEQGNWQEIQEKAVEVATVVIQPSVLRAAVPKNVSVAEGKELDLTCNITTDRADDVRPEVTWSFSRMPDSTLPGSRVLARLDRDSLVHSSPHVALSHVDARSYHLLVRDVSKENSGYYYCHVSLWAPGHNRSWHKVAEAVSSPAGVGVTWLEPDYQVYLNASKVPGFADDPTELACRVVDTKSGEANVRFTVSWYYRMNRRSDNVVTSELLAVMDGDWTLKYGERSKQRAQDGDFIFSKEHTDTFNFRIQRTTEEDRGNYYCVVSAWTKQRNNSWVKSKDVFSKPVNIFWALEDSVLVVKARQPKPFFAAGNTFEMTCKVSSKNIKSPRYSVLIMAEKPVGDLSSPNETKYIISLDQDSVVKLENWTDASRVDGVVLEKVQEDEFRYRMYQTQVSDAGLYRCMVTAWSPVRGSLWREAATSLSNPIEIDFQTSGPIFNASVHSDTPSVIRGDLIKLFCIITVEGAALDPDDMAFDVSWFAVHSFGLDKAPVLLSSLDRKGIVTTSRRDWKSDLSLERVSVLEFLLQVHGSEDQDFGNYYCSVTPWVKSPTGSWQKEAEIHSKPVFITVKMDVLNAFKYP
notes: Expressed in Expi293 as signal peptide-ECD-PAR1 cleavage site-Fc; the Fc was removed with thrombin, so a remnant of the PAR1 site may remain; also called PTGFRN ECD; purified PTGFRN ECD
Q: Does B1 bind?
A: Result: binds

Source: patent US20250228964A1 (CODIAK BIOSCIENCES, published 2025)
